Assay results as given in the Human Domainome abundance scans (Beltran et al. 2025).
± gives the uncertainty stated by the source.

B1: Tripartite motif-containing protein 44, residues 174 to 218; numbered along this chain, Q96DX7 (parent)
chain: VAKRKCPDHGLDLSTYCQEDRQLICVLCPVIGAHQGHQLSTLDEA

Variants of: B1
Experiment: abundance fitness (aPCA) (normalised: wild type 0, dead -1); higher = more abundant; growth selection in yeast, the domain comes from the species named
Conditions: Homo sapiens

Point of comparison: VAKRKCPDHGLDLSQYCQEDRQLICVLCPVIGAHQGHQLSTLDEA [T15Q], abundance fitness 0.039 ± 0.033. Against it:
- VAKRKCPDHGLDLVTYCQEDRQLICVLCPVIGAHQGHQLSTLDEA [S14V] — within error, 0.011 ± 0.028
- VAKRKCPDHGLDLDTYCQEDRQLICVLCPVIGAHQGHQLSTLDEA [S14D] — within error, 0.006 ± 0.037
- VAKRKCPDHGLDLETYCQEDRQLICVLCPVIGAHQGHQLSTLDEA [S14E] — within error, 0.033 ± 0.028
- VAKRKCPDHGLDLFTYCQEDRQLICVLCPVIGAHQGHQLSTLDEA [S14F] — lower, -0.074 ± 0.044
- VAKRKCPDHGLDLNTYCQEDRQLICVLCPVIGAHQGHQLSTLDEA [S14N] — within error, 0.094 ± 0.06
- VAKRKCPDHGLDLRTYCQEDRQLICVLCPVIGAHQGHQLSTLDEA [S14R] — lower, -0.098 ± 0.027
- VAKRKCPDHGLDLMTYCQEDRQLICVLCPVIGAHQGHQLSTLDEA [S14M] — lower, -0.049 ± 0.032
- VAKRKCPDHGLDLQTYCQEDRQLICVLCPVIGAHQGHQLSTLDEA [S14Q] — within error, -0.001 ± 0.034
- VAKRKCPDHGLDLLTYCQEDRQLICVLCPVIGAHQGHQLSTLDEA [S14L] — lower, -0.031 ± 0.028
- VAKRKCPDHGLDLHTYCQEDRQLICVLCPVIGAHQGHQLSTLDEA [S14H] — within error, -0.014 ± 0.05
- VAKRKCPDHGLDLGTYCQEDRQLICVLCPVIGAHQGHQLSTLDEA [S14G] — within error, 0.019 ± 0.026
- VAKRKCPDHGLDLITYCQEDRQLICVLCPVIGAHQGHQLSTLDEA [S14I] — within error, 0.023 ± 0.058
- VAKRKCPDHGLDLKTYCQEDRQLICVLCPVIGAHQGHQLSTLDEA [S14K] — within error, 0.014 ± 0.03
- VAKRKCPDHGLDLTTYCQEDRQLICVLCPVIGAHQGHQLSTLDEA [S14T] — within error, 0.01 ± 0.034
- VAKRKCPDHGLDLPTYCQEDRQLICVLCPVIGAHQGHQLSTLDEA [S14P] — lower, -0.688 ± 0.063
- VAKRKCPDHGLDLATYCQEDRQLICVLCPVIGAHQGHQLSTLDEA [S14A] — within error, -0.001 ± 0.027
- VAKRKCPDHGLDLWTYCQEDRQLICVLCPVIGAHQGHQLSTLDEA [S14W] — lower, -0.155 ± 0.03
- VAKRKCPDHGLDLSTYCWEDRQLICVLCPVIGAHQGHQLSTLDEA [Q18W] — lower, -0.189 ± 0.031
- VAKRKCPDHGLDLSTYCTEDRQLICVLCPVIGAHQGHQLSTLDEA [Q18T] — lower, -0.06 ± 0.034
- VAKRKCPDHGLDLSTYCDEDRQLICVLCPVIGAHQGHQLSTLDEA [Q18D] — within error, 0.009 ± 0.039
- VAKRKCPDHGLDLSTYCKEDRQLICVLCPVIGAHQGHQLSTLDEA [Q18K] — within error, 0.037 ± 0.043
- VAKRKCPDHGLDLSTYCSEDRQLICVLCPVIGAHQGHQLSTLDEA [Q18S] — within error, -0.015 ± 0.031
- VAKRKCPDHGLDLSTYCMEDRQLICVLCPVIGAHQGHQLSTLDEA [Q18M] — within error, -0.01 ± 0.041
- VAKRKCPDHGLDLSTYCREDRQLICVLCPVIGAHQGHQLSTLDEA [Q18R] — lower, -0.043 ± 0.026
- VAKRKCPDHGLDLSTYCCEDRQLICVLCPVIGAHQGHQLSTLDEA [Q18C] — lower, -0.041 ± 0.037
- VAKRKCPDHGLDLSTYCAEDRQLICVLCPVIGAHQGHQLSTLDEA [Q18A] — lower, -0.021 ± 0.026
- VAKRKCPDHGLDLSTYCYEDRQLICVLCPVIGAHQGHQLSTLDEA [Q18Y] — within error, 0.08 ± 0.066
- VAKRKCPDHGLDLSTYCHEDRQLICVLCPVIGAHQGHQLSTLDEA [Q18H] — within error, 0.035 ± 0.072
- VAKRKCPDHGLDLSTYCGEDRQLICVLCPVIGAHQGHQLSTLDEA [Q18G] — lower, -0.111 ± 0.026
- VAKRKCPDHGLDLSTYCEEDRQLICVLCPVIGAHQGHQLSTLDEA [Q18E] — within error, 0.008 ± 0.03
- VAKRKCPDHGLDLSTYCFEDRQLICVLCPVIGAHQGHQLSTLDEA [Q18F] — lower, -0.109 ± 0.048
- VAKRKCPDHGLDLSTYCVEDRQLICVLCPVIGAHQGHQLSTLDEA [Q18V] — lower, -0.086 ± 0.028
- VAKRKCPDHGLDLSTYCIEDRQLICVLCPVIGAHQGHQLSTLDEA [Q18I] — within error, -0.058 ± 0.1
- VAKRKCPDHGLDLSTYCNEDRQLICVLCPVIGAHQGHQLSTLDEA [Q18N] — within error, -0.01 ± 0.06
- VAKRKCPDHGLDLSTYCPEDRQLICVLCPVIGAHQGHQLSTLDEA [Q18P] — lower, -0.038 ± 0.04
- VAKRKCPDHGLDLSTYCLEDRQLICVLCPVIGAHQGHQLSTLDEA [Q18L] — lower, -0.061 ± 0.029
- VAKRKCPDHGLDLSPYCQEDRQLICVLCPVIGAHQGHQLSTLDEA [T15P] — lower, -0.544 ± 0.04
- VAKRKCPDHGLDLSNYCQEDRQLICVLCPVIGAHQGHQLSTLDEA [T15N] — within error, 0.014 ± 0.039
- VAKRKCPDHGLDLSGYCQEDRQLICVLCPVIGAHQGHQLSTLDEA [T15G] — lower, -0.101 ± 0.025
- VAKRKCPDHGLDLSIYCQEDRQLICVLCPVIGAHQGHQLSTLDEA [T15I] — lower, -0.137 ± 0.062
- VAKRKCPDHGLDLSHYCQEDRQLICVLCPVIGAHQGHQLSTLDEA [T15H] — within error, -0.033 ± 0.043
- VAKRKCPDHGLDLSLYCQEDRQLICVLCPVIGAHQGHQLSTLDEA [T15L] — lower, -0.196 ± 0.03
- VAKRKCPDHGLDLSYYCQEDRQLICVLCPVIGAHQGHQLSTLDEA [T15Y] — within error, 0.001 ± 0.1
- VAKRKCPDHGLDLSAYCQEDRQLICVLCPVIGAHQGHQLSTLDEA [T15A] — lower, -0.085 ± 0.029
- VAKRKCPDHGLDLSDYCQEDRQLICVLCPVIGAHQGHQLSTLDEA [T15D] — within error, -0.006 ± 0.036
- VAKRKCPDHGLDLSWYCQEDRQLICVLCPVIGAHQGHQLSTLDEA [T15W] — lower, -0.2 ± 0.03
- VAKRKCPDHGLDLSFYCQEDRQLICVLCPVIGAHQGHQLSTLDEA [T15F] — lower, -0.382 ± 0.046
- VAKRKCPDHGLDLSVYCQEDRQLICVLCPVIGAHQGHQLSTLDEA [T15V] — lower, -0.198 ± 0.027
- VAKRKCPDHGLDLSCYCQEDRQLICVLCPVIGAHQGHQLSTLDEA [T15C] — lower, -0.153 ± 0.034
- VAKRKCPDHGLDLSMYCQEDRQLICVLCPVIGAHQGHQLSTLDEA [T15M] — lower, -0.106 ± 0.039
- VAKRKCPDHGLDLSKYCQEDRQLICVLCPVIGAHQGHQLSTLDEA [T15K] — within error, 0.048 ± 0.035
- VAKRKCPDHGLDLSSYCQEDRQLICVLCPVIGAHQGHQLSTLDEA [T15S] — lower, -0.03 ± 0.03
- VAKRKCPDHGLDLSRYCQEDRQLICVLCPVIGAHQGHQLSTLDEA [T15R] — lower, -0.054 ± 0.027
- VAKRKCPDHGLDLSTQCQEDRQLICVLCPVIGAHQGHQLSTLDEA [Y16Q] — within error, -0.029 ± 0.035
- VAKRKCPDHGLDLSTHCQEDRQLICVLCPVIGAHQGHQLSTLDEA [Y16H] — lower, -0.053 ± 0.041
- VAKRKCPDHGLDLSTVCQEDRQLICVLCPVIGAHQGHQLSTLDEA [Y16V] — lower, -0.052 ± 0.028
